Test results: US20180346602A1

Experiments:
[1] = molecular target: anti-P-Selectin antibody (IgG4 subclass with mutations S228P/L235E) (human) [IgG part: P01861]; assay: sandwich ELISA assay B; capture on SA plate; tracer M1.7.10-Dig; analyte 6 ng/mL
[2] = molecular target: anti-VEGF/ANG2 antibody (IgG1 subclass with mutations P329G/L234A/L235A/I253A/H310A/H435A) (human) [IgG part: P01857]; assay: as above
[3] = molecular target: anti-IGF-1R antibody (IgG1 subclass with mutations I253A/H310A/H435A) (human) [IgG part: P01857]; assay: as above
[4] = molecular target: anti-VEGF/ANG2 antibody (IgG1 subclass with mutations P329G/L234A/L235A) [IgG part: P01857]; assay: sandwich ELISA assay A; capture M1.7.10-Bi; antibody 2 at 0 ng/mL (blank)
[5] = molecular target: anti-IGF-1R antibody (IgG1 subclass with mutations I253A/H310A/H435A) [IgG part: P01857]; assay: sandwich ELISA assay A; capture M1.7.10-Bi; antibody 3 at 50 ng/mL
[6] = molecular target: anti-P-Selectin antibody (IgG4 subclass with mutations S228P/L235E) (human) [IgG part: P01861]; assay: sandwich ELISA assay B; capture on SA plate; tracer M1.7.10-Dig; analyte 2 ng/mL
[7] = molecular target: anti-VEGF/ANG2 antibody (IgG1 subclass with mutations P329G/L234A/L235A/I253A/H310A/H435A) (human) [IgG part: P01857]; assay: as above
[8] = molecular target: anti-VEGF/ANG2 antibody (IgG1 subclass with mutations P329G/L234A/L235A) (human) [IgG part: P01857]; assay: as above
[9] = molecular target: anti-IGF-1R antibody (IgG1 subclass with mutations I253A/H310A/H435A) (human) [IgG part: P01857]; assay: as above
[10] = molecular target: anti-VEGF/ANG2 antibody (wild-type IgG1 subclass) [IgG part: P01857]; assay: sandwich ELISA assay A; capture M1.7.10-Bi; antibody 5 at 3 ng/mL
[11] = molecular target: anti-VEGF/ANG2 antibody (wild-type IgG1 subclass) [IgG part: P01857]; assay: sandwich ELISA assay A; capture M1.7.10-Bi; antibody 5 at 13 ng/mL
[12] = molecular target: anti-P-Selectin antibody (IgG4 subclass with mutations S228P/L235E) (human) [IgG part: P01861]; assay: sandwich ELISA assay C; capture on SA plate; tracer FcγRI-Dig; analyte 6 ng/mL
[13] = molecular target: anti-VEGF/ANG2 antibody (IgG1 subclass with mutations P329G/L234A/L235A/I253A/H310A/H435A) (human) [IgG part: P01857]; assay: as above
[14] = molecular target: anti-VEGF/ANG2 antibody (IgG1 subclass with mutations P329G/L234A/L235A) (human) [IgG part: P01857]; assay: as above
[15] = molecular target: anti-IGF-1R antibody (IgG1 subclass with mutations I253A/H310A/H435A) (human) [IgG part: P01857]; assay: as above
[16] = molecular target: anti-VEGF/ANG2 antibody (IgG1 subclass with mutations P329G/L234A/L235A/I253A/H310A/H435A) [IgG part: P01857]; assay: sandwich ELISA assay A; capture M1.7.10-Bi; antibody 1 at 25 ng/mL
[17] = molecular target: anti-VEGF/ANG2 antibody (IgG1 subclass with mutations P329G/L234A/L235A) [IgG part: P01857]; assay: sandwich ELISA assay A; capture M1.7.10-Bi; antibody 2 at 6 ng/mL
[18] = molecular target: anti-P-Selectin antibody (IgG4 subclass with mutations S228P/L235E) [IgG part: P01861]; assay: sandwich ELISA assay A; capture M1.7.10-Bi; antibody 4 at 6 ng/mL
[19] = molecular target: anti-VEGF/ANG2 antibody (IgG1 subclass with mutations P329G/L234A/L235A) [IgG part: P01857]; assay: sandwich ELISA assay A; capture M1.7.10-Bi; antibody 2 at 25 ng/mL
[20] = molecular target: anti-P-Selectin antibody (IgG4 subclass with mutations S228P/L235E) (human) [IgG part: P01861]; assay: sandwich ELISA assay C; capture on SA plate; tracer FcγRI-Dig; analyte 0 ng/mL (blank)
[21] = molecular target: anti-VEGF/ANG2 antibody (IgG1 subclass with mutations P329G/L234A/L235A/I253A/H310A/H435A) (human) [IgG part: P01857]; assay: as above
[22] = molecular target: anti-VEGF/ANG2 antibody (IgG1 subclass with mutations P329G/L234A/L235A) (human) [IgG part: P01857]; assay: as above
[23] = molecular target: anti-IGF-1R antibody (IgG1 subclass with mutations I253A/H310A/H435A) (human) [IgG part: P01857]; assay: as above
[24] = molecular target: anti-VEGF/ANG2 antibody (IgG1 subclass with mutations P329G/L234A/L235A) [IgG part: P01857]; assay: sandwich ELISA assay A; capture M1.7.10-Bi; antibody 2 at 50 ng/mL
[25] = molecular target: anti-VEGF/ANG2 antibody (wild-type IgG1 subclass) [IgG part: P01857]; assay: sandwich ELISA assay A; capture M1.7.10-Bi; antibody 5 at 100 ng/mL

| Binder | signal [OD405 nm] [1] | signal [OD405 nm] [2] | signal [OD405 nm] [3] | signal [OD405 nm] [4] | signal [OD405 nm] [5] | signal [OD405 nm] [6] | signal [OD405 nm] [7] | signal [OD405 nm] [8] | signal [OD405 nm] [9] | signal [OD405 nm] [10] | signal [OD405 nm] [11] | signal [OD405 nm] [12] | signal [OD405 nm] [13] | signal [OD405 nm] [14] | signal [OD405 nm] [15] | signal [OD405 nm] [16] | signal [OD405 nm] [17] | signal [OD405 nm] [18] | signal [OD405 nm] [19] | signal [OD405 nm] [20] | further results |
| --- | --- | --- | --- | --- | --- | --- | --- | --- | --- | --- | --- | --- | --- | --- | --- | --- | --- | --- | --- | --- | --- |
| anti-AAA variant Fc-region antibody M1.6.22 (antibody, V domains shown) VH: EVQLVESGGDLVKPGGSLKLSCAASGFTFSSYGMSWVRQTPDKRLEWVATISSGGSYIYYPDSVKGRFTISRDNAKNTLYLQMSSLKSEDTAMYYCARLGMITTGYAMDYWGQGTSVTVSS VL: DVLMTQTPLSLPVSLGDQASISCRSSQTIVHSTGHTYLEWFLQKPGQSPKLLIYKVSNRFSGVPDRFSGSGSGTDFTLKISRVEAEDLGVYYCFQGSHVPYTFGGGTKLEIK | 0.04 OD405 nm | 0.039 OD405 nm | 2.73 OD405 nm | 0.048 OD405 nm | 2.74 OD405 nm | 0.032 OD405 nm | 0.041 OD405 nm | 0.041 OD405 nm | 1.48 OD405 nm | 0.039 OD405 nm | 0.045 OD405 nm | 0.051 OD405 nm | 0.06 OD405 nm | 0.06 OD405 nm | 0.104 OD405 nm | 0.061 OD405 nm | 0.044 OD405 nm | 0.041 OD405 nm | 0.06 OD405 nm | 0.077 OD405 nm | signal [OD405 nm] [21]: 0.077 OD405 nm; signal [OD405 nm] [22]: 0.064 OD405 nm; signal [OD405 nm] [23]: 0.069 OD405 nm; signal [OD405 nm] [24]: 0.065 OD405 nm; signal [OD405 nm] [25]: 0.056 OD405 nm |
| anti-variant (human) Fc-region antibody M1.3.17 (antibody, V domains shown) VH: EVKLLESGGGLVQPGGSLKLSCAASGIDFRRYWMNWVRQAPGKGLEWIGEIDPDSSTINYTPSLKDKFIISRDNAKNTMYLQMRKVRSEDTALYYCARPYDYGAWFAYWGQGTLVTVSA VL: QAVVTQESALTTSPGETVTLTCRSTTGAVTTSNYANWVQEKPDHLFTGLIGGTNKRAPGVPARFSGSLIGDKAALTITGAQTEDEAIYFCALWYSDHWVFGGGTKLTVL | 0.048 OD405 nm | 0.035 OD405 nm | 0.045 OD405 nm | 0.042 OD405 nm | 0.044 OD405 nm | 0.049 OD405 nm | 0.036 OD405 nm | 0.125 OD405 nm | 0.047 OD405 nm | 0.033 OD405 nm | 0.038 OD405 nm | 1.18 OD405 nm | 1.17 OD405 nm | 1.22 OD405 nm | 1.21 OD405 nm | 0.04 OD405 nm | 1.99 OD405 nm | 0.036 OD405 nm | 2.93 OD405 nm | 1.19 OD405 nm | signal [OD405 nm] [21]: 1.18 OD405 nm; signal [OD405 nm] [22]: 1.23 OD405 nm; signal [OD405 nm] [23]: 1.22 OD405 nm; signal [OD405 nm] [24]: 2.96 OD405 nm; signal [OD405 nm] [25]: 0.042 OD405 nm |
| anti-variant (human) Fc-region antibody M1.7.24 (antibody, V domains shown) VH: EVKLLESGGGLVQPGGSLKLSCAASGFDFSRYWMNWVRQAPGKGLEWIGEITPDSSTINYTPSLKDKFIISRDNAKNTLYLQMIKVRSEDTALYYCVRPYDYGAWFASWGQGTLVTVSA VL: QAVVTQESALTTSPGETVTLTCRSSTGAVTTSNYANWVQEKPDHLFTGLIGGTNKRAPGVPARFSGSLIGDKAALTITGAQTEDEAIYFCALWYSNHWVFGGGTKLTVL | 0.037 OD405 nm | 0.053 OD405 nm | 0.039 OD405 nm | 0.043 OD405 nm | 0.048 OD405 nm | 0.033 OD405 nm | 0.049 OD405 nm | 1.73 OD405 nm | 0.047 OD405 nm | 0.038 OD405 nm | 0.042 OD405 nm | 0.053 OD405 nm | 0.079 OD405 nm | 0.06 OD405 nm | 0.069 OD405 nm | 0.047 OD405 nm | 2.24 OD405 nm | 0.045 OD405 nm | 2.61 OD405 nm | 0.076 OD405 nm | signal [OD405 nm] [21]: 0.076 OD405 nm; signal [OD405 nm] [22]: 0.092 OD405 nm; signal [OD405 nm] [23]: 0.086 OD405 nm; signal [OD405 nm] [24]: 2.6 OD405 nm; signal [OD405 nm] [25]: 0.042 OD405 nm |
